# Target: pFGFR2_(Cyto) (UniProt P21802)
# Assay: MST
# pFGFR2_(Cyto), sequence (P21802 400-821): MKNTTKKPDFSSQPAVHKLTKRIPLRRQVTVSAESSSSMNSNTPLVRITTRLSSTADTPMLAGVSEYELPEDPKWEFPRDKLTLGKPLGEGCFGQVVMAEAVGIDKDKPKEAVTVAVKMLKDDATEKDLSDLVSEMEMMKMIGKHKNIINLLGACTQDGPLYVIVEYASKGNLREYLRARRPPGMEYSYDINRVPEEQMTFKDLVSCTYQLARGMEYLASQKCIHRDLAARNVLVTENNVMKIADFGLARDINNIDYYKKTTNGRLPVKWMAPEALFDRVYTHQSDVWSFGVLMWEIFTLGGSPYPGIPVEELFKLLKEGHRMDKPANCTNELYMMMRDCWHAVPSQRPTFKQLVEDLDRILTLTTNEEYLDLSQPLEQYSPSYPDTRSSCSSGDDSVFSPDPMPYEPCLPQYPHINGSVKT
row,Substance,Kd [µM]
1,PLCγ1_(2SH2) (from UniProt P19174 545-791) (domain or fragment),0.223
2,SHP2_(2SH2) (from UniProt Q06124 1-221) (domain or fragment),25.1
